According to patent US10087225B2, “Formulation of MK2 inhibitor peptides” (MOERAE MATRIX, INC., priority 2015, dated 2018):

Key:
Test in all cases: Kinase Profiling Assay
Assay type in all cases: biochemical
DAPK1(h) = DAPK1(h) (Homo sapiens, UniProt P53355)
Snk(h) = Snk(h) (Homo sapiens, UniProt Q9NYY3)
Rsk2(h) = Rsk2(h) (Homo sapiens, UniProt P51812); details: 100 μM
Met(M1268T)(h) = Met(M1268T)(h) (Homo sapiens, UniProt P08581, M1250T); details: 100 μM
FGFR2(h) = FGFR2(h) (Homo sapiens, UniProt P21802); details: 100 μM
JNK3(h) = JNK3(h) (Homo sapiens, UniProt P53779); details: 100 μM
CDK6/cyclinD3(h) = CDK6/cyclinD3(h) (Homo sapiens, UniProt Q00534); details: 100 μM
CaMKIIδ(h) = CaMKIIδ(h) (Homo sapiens, UniProt Q13557); details: 100 μM
Pim-3(h) = Pim-3(h) (Homo sapiens, UniProt Q86V86); details: 100 μM
LKB1(h) = molecular target: T1, LKB1(h) (Homo sapiens, UniProt Q15831); details: 100 μM
T1 sequence (Q15831 1-433): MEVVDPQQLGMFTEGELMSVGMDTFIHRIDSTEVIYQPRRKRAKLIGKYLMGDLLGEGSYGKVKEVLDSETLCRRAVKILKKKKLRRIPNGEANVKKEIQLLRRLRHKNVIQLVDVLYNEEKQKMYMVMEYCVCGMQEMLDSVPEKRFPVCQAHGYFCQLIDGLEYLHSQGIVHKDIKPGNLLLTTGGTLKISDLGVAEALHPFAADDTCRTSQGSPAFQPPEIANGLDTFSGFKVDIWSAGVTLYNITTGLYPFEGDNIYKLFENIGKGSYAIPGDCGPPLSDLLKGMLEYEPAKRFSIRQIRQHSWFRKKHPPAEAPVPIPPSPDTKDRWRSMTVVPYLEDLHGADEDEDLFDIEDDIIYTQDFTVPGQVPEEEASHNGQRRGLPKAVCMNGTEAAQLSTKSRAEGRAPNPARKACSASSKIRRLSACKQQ
T1 sequence (Q7RTN6 1-431 partner): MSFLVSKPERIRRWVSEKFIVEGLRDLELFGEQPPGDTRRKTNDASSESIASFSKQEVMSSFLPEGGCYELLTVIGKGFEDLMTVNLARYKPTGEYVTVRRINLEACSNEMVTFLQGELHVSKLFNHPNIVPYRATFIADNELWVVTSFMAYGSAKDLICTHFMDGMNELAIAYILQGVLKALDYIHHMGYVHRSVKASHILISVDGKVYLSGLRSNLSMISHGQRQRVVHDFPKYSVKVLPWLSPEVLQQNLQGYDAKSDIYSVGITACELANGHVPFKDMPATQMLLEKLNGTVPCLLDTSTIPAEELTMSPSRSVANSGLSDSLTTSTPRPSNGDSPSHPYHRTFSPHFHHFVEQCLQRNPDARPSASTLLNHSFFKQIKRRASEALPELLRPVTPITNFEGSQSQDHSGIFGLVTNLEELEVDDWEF
T1 sequence (Q9Y376 1-341 partner): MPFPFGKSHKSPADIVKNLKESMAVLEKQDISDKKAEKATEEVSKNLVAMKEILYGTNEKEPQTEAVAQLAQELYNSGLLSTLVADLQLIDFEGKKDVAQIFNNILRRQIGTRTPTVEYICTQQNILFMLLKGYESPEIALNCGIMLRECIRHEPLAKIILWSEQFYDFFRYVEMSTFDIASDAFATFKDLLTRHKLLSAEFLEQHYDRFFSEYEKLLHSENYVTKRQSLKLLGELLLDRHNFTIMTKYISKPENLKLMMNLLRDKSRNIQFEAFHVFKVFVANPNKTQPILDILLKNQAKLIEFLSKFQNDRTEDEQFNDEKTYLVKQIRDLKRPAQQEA

MST3(h) = MST3(h) (Homo sapiens, UniProt Q9Y6E0); details: 100 μM
Ros(h) = Ros(h) (Homo sapiens, UniProt P08922); details: 100 μM
mTOR(h) = mTOR(h) (Homo sapiens, UniProt P42345); details: 100 μM
PDGFRα(h) = PDGFRα(h) (Homo sapiens, UniProt P16234); details: 100 μM
Hck(h) activated = Hck(h) activated (Homo sapiens, UniProt P08631); details: 100 μM
PAK5(h) = PAK5(h) (Homo sapiens, UniProt Q9P286); details: 100 μM
PAK5(h), sequence (Q9P286 whole entry): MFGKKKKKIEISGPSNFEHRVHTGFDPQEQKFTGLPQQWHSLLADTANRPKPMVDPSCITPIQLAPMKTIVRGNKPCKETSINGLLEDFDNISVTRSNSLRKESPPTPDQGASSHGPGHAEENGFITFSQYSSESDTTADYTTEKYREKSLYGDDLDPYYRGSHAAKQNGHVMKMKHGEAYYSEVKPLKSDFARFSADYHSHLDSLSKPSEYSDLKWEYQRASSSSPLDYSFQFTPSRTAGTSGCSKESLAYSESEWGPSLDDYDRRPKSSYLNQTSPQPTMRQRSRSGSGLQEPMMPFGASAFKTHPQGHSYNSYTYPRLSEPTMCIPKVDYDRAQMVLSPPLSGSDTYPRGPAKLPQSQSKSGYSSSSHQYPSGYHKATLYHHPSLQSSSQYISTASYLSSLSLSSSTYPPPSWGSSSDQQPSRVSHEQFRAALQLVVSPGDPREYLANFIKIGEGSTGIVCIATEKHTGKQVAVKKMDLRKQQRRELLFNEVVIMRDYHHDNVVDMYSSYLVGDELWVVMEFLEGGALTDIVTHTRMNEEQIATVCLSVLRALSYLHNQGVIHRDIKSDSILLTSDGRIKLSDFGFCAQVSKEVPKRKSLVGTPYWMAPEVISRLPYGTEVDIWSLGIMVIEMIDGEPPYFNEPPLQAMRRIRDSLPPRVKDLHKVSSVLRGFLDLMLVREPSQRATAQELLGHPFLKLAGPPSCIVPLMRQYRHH

PDGFRα(h), sequence (P16234 24-1089): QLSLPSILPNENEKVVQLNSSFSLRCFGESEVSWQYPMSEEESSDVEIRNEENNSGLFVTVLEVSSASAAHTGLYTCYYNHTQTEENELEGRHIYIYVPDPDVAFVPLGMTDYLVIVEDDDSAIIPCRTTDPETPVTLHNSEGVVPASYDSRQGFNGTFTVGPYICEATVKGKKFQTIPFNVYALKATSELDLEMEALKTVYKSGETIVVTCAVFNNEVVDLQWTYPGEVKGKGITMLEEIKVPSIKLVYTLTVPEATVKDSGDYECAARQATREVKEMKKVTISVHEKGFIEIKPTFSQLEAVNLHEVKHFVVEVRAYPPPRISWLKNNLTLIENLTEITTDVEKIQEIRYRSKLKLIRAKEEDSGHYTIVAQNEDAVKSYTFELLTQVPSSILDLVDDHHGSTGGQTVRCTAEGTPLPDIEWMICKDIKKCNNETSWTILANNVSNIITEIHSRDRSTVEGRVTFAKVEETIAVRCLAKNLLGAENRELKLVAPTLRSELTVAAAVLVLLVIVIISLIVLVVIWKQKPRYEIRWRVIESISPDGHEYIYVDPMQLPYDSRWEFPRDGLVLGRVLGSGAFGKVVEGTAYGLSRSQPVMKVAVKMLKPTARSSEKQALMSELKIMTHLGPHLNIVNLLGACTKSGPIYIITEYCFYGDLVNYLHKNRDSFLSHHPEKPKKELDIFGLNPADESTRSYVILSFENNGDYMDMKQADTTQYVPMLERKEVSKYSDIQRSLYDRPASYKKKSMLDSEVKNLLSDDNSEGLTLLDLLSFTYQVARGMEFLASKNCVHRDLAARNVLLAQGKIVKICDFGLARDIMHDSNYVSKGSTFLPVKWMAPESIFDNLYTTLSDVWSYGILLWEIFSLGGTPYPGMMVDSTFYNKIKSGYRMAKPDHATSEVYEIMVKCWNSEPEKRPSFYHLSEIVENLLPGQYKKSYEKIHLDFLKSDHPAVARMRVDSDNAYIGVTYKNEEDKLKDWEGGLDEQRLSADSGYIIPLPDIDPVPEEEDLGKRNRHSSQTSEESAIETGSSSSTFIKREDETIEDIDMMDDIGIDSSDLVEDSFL
JNK3(h), sequence (P53779 whole entry): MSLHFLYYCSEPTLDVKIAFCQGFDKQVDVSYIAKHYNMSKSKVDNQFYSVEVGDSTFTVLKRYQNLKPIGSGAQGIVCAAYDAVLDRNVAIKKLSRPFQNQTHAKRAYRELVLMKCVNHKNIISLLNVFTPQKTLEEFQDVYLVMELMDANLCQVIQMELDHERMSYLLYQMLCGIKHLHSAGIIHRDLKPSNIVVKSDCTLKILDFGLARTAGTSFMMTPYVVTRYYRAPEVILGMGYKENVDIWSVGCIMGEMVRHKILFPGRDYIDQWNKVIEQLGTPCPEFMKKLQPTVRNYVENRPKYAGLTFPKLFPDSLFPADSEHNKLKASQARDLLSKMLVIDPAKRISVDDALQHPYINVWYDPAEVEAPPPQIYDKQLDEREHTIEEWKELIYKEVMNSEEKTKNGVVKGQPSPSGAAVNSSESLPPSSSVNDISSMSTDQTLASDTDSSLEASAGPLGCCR
CDK6/cyclinD3(h), sequence (Q00534 whole entry): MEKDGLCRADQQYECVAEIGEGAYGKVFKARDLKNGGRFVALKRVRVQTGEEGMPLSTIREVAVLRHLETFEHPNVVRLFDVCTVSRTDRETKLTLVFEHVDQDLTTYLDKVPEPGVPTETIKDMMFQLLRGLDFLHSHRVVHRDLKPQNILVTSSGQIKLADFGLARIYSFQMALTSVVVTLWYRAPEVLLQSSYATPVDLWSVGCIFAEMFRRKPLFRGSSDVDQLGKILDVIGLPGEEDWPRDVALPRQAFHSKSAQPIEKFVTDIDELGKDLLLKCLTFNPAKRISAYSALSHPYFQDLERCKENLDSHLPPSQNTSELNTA
CDK6/cyclinD3(h), sequence (P30281 whole entry partner): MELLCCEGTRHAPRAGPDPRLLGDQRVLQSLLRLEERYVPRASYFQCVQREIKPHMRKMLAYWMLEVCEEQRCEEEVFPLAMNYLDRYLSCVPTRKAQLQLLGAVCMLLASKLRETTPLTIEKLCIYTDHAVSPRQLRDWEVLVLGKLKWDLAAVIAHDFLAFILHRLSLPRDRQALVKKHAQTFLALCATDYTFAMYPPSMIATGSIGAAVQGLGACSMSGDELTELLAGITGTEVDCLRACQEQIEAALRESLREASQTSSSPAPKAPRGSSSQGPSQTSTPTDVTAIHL
CaMKIIδ(h), sequence (Q13557 whole entry): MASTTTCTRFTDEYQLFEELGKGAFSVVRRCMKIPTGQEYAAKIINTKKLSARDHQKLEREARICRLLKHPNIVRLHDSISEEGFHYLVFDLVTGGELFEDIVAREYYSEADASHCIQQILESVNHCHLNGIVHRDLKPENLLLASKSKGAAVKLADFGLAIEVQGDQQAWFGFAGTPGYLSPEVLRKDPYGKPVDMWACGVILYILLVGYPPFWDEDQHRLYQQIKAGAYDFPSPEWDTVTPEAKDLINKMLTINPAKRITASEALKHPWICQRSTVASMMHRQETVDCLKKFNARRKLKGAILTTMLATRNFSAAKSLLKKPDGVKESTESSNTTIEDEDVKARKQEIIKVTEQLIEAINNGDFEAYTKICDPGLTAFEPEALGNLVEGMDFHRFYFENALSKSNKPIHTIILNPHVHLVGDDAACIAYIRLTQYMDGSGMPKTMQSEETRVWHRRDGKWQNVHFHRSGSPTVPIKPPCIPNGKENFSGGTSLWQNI
Hck(h) activated, sequence (P08631 whole entry): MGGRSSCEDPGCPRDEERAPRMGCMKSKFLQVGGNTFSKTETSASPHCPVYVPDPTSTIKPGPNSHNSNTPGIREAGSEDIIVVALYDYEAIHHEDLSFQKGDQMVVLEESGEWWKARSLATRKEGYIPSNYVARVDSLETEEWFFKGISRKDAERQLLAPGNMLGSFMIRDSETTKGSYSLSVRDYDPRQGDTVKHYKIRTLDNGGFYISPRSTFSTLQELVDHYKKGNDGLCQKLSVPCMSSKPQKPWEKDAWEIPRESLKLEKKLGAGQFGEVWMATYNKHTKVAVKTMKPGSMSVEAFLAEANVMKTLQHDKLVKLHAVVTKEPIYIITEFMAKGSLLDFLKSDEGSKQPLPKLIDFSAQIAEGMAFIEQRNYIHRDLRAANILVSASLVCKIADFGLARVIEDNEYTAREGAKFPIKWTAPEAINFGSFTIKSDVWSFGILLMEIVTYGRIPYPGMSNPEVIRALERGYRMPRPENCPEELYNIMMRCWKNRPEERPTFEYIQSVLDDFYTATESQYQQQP
MST3(h), sequence (Q9Y6E0 whole entry): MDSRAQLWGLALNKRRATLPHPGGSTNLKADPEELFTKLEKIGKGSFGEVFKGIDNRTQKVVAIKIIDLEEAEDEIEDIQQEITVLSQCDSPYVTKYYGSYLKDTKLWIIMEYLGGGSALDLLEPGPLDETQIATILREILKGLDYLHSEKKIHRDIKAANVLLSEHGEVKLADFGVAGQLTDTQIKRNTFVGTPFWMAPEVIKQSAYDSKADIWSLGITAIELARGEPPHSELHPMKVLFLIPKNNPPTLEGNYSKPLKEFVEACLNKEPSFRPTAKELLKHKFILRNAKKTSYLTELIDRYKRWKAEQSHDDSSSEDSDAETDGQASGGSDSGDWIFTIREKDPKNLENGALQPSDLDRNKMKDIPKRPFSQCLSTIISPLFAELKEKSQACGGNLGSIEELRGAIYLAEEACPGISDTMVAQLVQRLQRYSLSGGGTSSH

Substance	activity at 100 µM (DAPK1(h)) [%]	activity at 100 µM (Snk(h)) [%]	% activity (Rsk2(h)) [%]	% activity (Met(M1268T)(h)) [%]	% activity (DAPK1(h); 100 μM) [%]	% activity (FGFR2(h)) [%]	% activity (JNK3(h)) [%]	% activity (CDK6/cyclinD3(h)) [%]	% activity (CaMKIIδ(h)) [%]	% activity (Pim-3(h)) [%]	% activity (LKB1(h)) [%]	% activity (MST3(h)) [%]	% activity (Ros(h)) [%]	% activity (mTOR(h)) [%]	% activity (PDGFRα(h)) [%]	% activity (Snk(h); 100 μM) [%]	% activity (Hck(h) activated) [%]	% activity (PAK5(h)) [%]
H-YARAAARQARAKALARQLGVAA-OH [MMI-0100]	97	94																
HRRIKAWLKKIKALARQLGVAA (Mammalian) [MMI-0500]			14	239	0	12	171	23	1	37	51	4	150	135	40	122	67	125
YARAAARQARAKALNRQLGVA (Mammalian) [MMI-0200]			101	143		73	90	100	2	94	99	95	86	110	108		100	100
